B1: C2CD2L (parent)
chain: EPAGSLRELGVWRSLLRLRATRAG

Variants of: B1
Experiment: protein stability index of a GFP-peptide fusion (GPS, HEK-293T) (PSI 1-6); higher = more stable
Settings: c terminus: a fixed tail appended
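Also: lentivirally expressed fusions sorted by FACS into six bins by GFP to DsRed ratio, PSI derived from sequencing read proportions per bin multiplied by bin number.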

**Q.** Which protein stability index does the source give for EPAGSLRELSVWRSLLRLRATRAG here?
**A.** The protein stability index was 3.18.

**Q.** For EPAGSLRELNVWRSLLRLRATRAG, which protein stability index is on record?
**A.** The protein stability index was 4.3.

**Q.** For EPAGSLRELHVWRSLLRLRATRAG, which protein stability index is on record?
**A.** The protein stability index was 3.78.

**Q.** Which protein stability index does the source give for EPAGSLRELWVWRSLLRLRATRAG here?
**A.** Its protein stability index is 1.67.

**Q.** With EPAGSLRELLVWRSLLRLRATRAG as the variant, how does the protein stability index read?
**A.** The protein stability index was 2.02.

**Q.** Which protein stability index does the source give for EPAGSLRELTVWRSLLRLRATRAG here?
**A.** The protein stability index was 2.9.

**Q.** Which protein stability index does the source give for EPAGSLRELMVWRSLLRLRATRAG here?
**A.** The protein stability index was 1.99.

**Q.** Which protein stability index does the source give for EPAGSLRELDVWRSLLRLRATRAG here?
**A.** The protein stability index was 2.99.

**Q.** Which protein stability index does the source give for EPAGSLRELIVWRSLLRLRATRAG here?
**A.** Its protein stability index is 1.86.

**Q.** For NPAGSLRELGVWRSLLRLRATRAG, which protein stability index is on record?
**A.** Its protein stability index is 2.09.

**Q.** With IPAGSLRELGVWRSLLRLRATRAG as the variant, how does the protein stability index read?
**A.** Its protein stability index is 1.91.

**Q.** For LPAGSLRELGVWRSLLRLRATRAG, which protein stability index is on record?
**A.** Its protein stability index is 2.31.

**Q.** With FPAGSLRELGVWRSLLRLRATRAG as the variant, how does the protein stability index read?
**A.** The protein stability index was 2.41.

**Q.** With PPAGSLRELGVWRSLLRLRATRAG as the variant, how does the protein stability index read?
**A.** Its protein stability index is 2.25.

**Q.** With TPAGSLRELGVWRSLLRLRATRAG as the variant, how does the protein stability index read?
**A.** The protein stability index was 1.84.

**Q.** For MPAGSLRELGVWRSLLRLRATRAG, which protein stability index is on record?
**A.** The protein stability index was 1.91.

**Q.** For RPAGSLRELGVWRSLLRLRATRAG, which protein stability index is on record?
**A.** The protein stability index was 2.25.

**Q.** With EPAGSLRELGNWRSLLRLRATRAG as the variant, how does the protein stability index read?
**A.** The protein stability index was 3.27.

**Q.** For EPAGSLRELGYWRSLLRLRATRAG, which protein stability index is on record?
**A.** The protein stability index was 2.21.

**Q.** For EPAGSLRELGDWRSLLRLRATRAG, which protein stability index is on record?
**A.** The protein stability index was 3.74.

**Q.** With EPAGSLRELGIWRSLLRLRATRAG as the variant, how does the protein stability index read?
**A.** Its protein stability index is 2.5.

**Q.** Which protein stability index does the source give for EPAGSLRELGKWRSLLRLRATRAG here?
**A.** Its protein stability index is 3.37.

**Q.** With EPAGSLRELGRWRSLLRLRATRAG as the variant, how does the protein stability index read?
**A.** The protein stability index was 2.25.

**Q.** For EPAGSLRELGLWRSLLRLRATRAG, which protein stability index is on record?
**A.** The protein stability index was 2.17.

**Q.** Which protein stability index does the source give for EPAGSLRELGHWRSLLRLRATRAG here?
**A.** Its protein stability index is 3.11.

**Q.** With EPAGSLRELGTWRSLLRLRATRAG as the variant, how does the protein stability index read?
**A.** Its protein stability index is 2.95.

**Q.** Which protein stability index does the source give for EPAGSLRELGAWRSLLRLRATRAG here?
**A.** Its protein stability index is 2.61.

**Q.** With EEAGSLRELGVWRSLLRLRATRAG as the variant, how does the protein stability index read?
**A.** The protein stability index was 2.5.

**Q.** Which protein stability index does the source give for ETAGSLRELGVWRSLLRLRATRAG here?
**A.** The protein stability index was 1.93.

**Q.** Which protein stability index does the source give for ERAGSLRELGVWRSLLRLRATRAG here?
**A.** Its protein stability index is 2.41.

**Q.** For EGAGSLRELGVWRSLLRLRATRAG, which protein stability index is on record?
**A.** The protein stability index was 1.1.

**Q.** With EHAGSLRELGVWRSLLRLRATRAG as the variant, how does the protein stability index read?
**A.** The protein stability index was 1.42.

**Q.** For EVAGSLRELGVWRSLLRLRATRAG, which protein stability index is on record?
**A.** Its protein stability index is 1.82.

**Q.** With EAAGSLRELGVWRSLLRLRATRAG as the variant, how does the protein stability index read?
**A.** The protein stability index was 2.08.

**Q.** For ENAGSLRELGVWRSLLRLRATRAG, which protein stability index is on record?
**A.** Its protein stability index is 1.5.

**Q.** For EYAGSLRELGVWRSLLRLRATRAG, which protein stability index is on record?
**A.** Its protein stability index is 2.04.

**Q.** With EPAGSARELGVWRSLLRLRATRAG as the variant, how does the protein stability index read?
**A.** The protein stability index was 3.35.

**Q.** For EPAGSMRELGVWRSLLRLRATRAG, which protein stability index is on record?
**A.** Its protein stability index is 2.45.

**Q.** For EPAGSTRELGVWRSLLRLRATRAG, which protein stability index is on record?
**A.** The protein stability index was 2.83.

**Q.** For EPAGSIRELGVWRSLLRLRATRAG, which protein stability index is on record?
**A.** Its protein stability index is 2.2.

**Q.** For EPAGSWRELGVWRSLLRLRATRAG, which protein stability index is on record?
**A.** The protein stability index was 2.39.

**Q.** Which protein stability index does the source give for EPAGSKRELGVWRSLLRLRATRAG here?
**A.** The protein stability index was 2.36.

**Q.** Which protein stability index does the source give for EPAGSCRELGVWRSLLRLRATRAG here?
**A.** The protein stability index was 2.17.

**Q.** For EPAGSSRELGVWRSLLRLRATRAG, which protein stability index is on record?
**A.** Its protein stability index is 2.95.

**Q.** With EPAGFLRELGVWRSLLRLRATRAG as the variant, how does the protein stability index read?
**A.** Its protein stability index is 1.21.

**Q.** With EPAGRLRELGVWRSLLRLRATRAG as the variant, how does the protein stability index read?
**A.** Its protein stability index is 2.03.

**Q.** For EPAGALRELGVWRSLLRLRATRAG, which protein stability index is on record?
**A.** The protein stability index was 2.31.

**Q.** With EPAGWLRELGVWRSLLRLRATRAG as the variant, how does the protein stability index read?
**A.** Its protein stability index is 1.82.

**Q.** With EPAGYLRELGVWRSLLRLRATRAG as the variant, how does the protein stability index read?
**A.** Its protein stability index is 2.73.

**Q.** With EPAGCLRELGVWRSLLRLRATRAG as the variant, how does the protein stability index read?
**A.** Its protein stability index is 2.36.

**Q.** For EPAGVLRELGVWRSLLRLRATRAG, which protein stability index is on record?
**A.** The protein stability index was 2.04.

**Q.** For EPAGDLRELGVWRSLLRLRATRAG, which protein stability index is on record?
**A.** The protein stability index was 2.56.

**Q.** With EPAGELRELGVWRSLLRLRATRAG as the variant, how does the protein stability index read?
**A.** The protein stability index was 3.05.

**Q.** For EPAGSLRETGVWRSLLRLRATRAG, which protein stability index is on record?
**A.** The protein stability index was 2.92.

**Q.** For EPAGSLREIGVWRSLLRLRATRAG, which protein stability index is on record?
**A.** The protein stability index was 1.71.

**Q.** With EPAGSLREYGVWRSLLRLRATRAG as the variant, how does the protein stability index read?
**A.** The protein stability index was 4.48.

**Q.** Which protein stability index does the source give for EPAGSLRECGVWRSLLRLRATRAG here?
**A.** Its protein stability index is 3.04.

**Q.** Which protein stability index does the source give for EPAGSLREEGVWRSLLRLRATRAG here?
**A.** The protein stability index was 3.3.

**Q.** With EPAGSLREMGVWRSLLRLRATRAG as the variant, how does the protein stability index read?
**A.** The protein stability index was 2.07.

**Q.** For EPAGSLRESGVWRSLLRLRATRAG, which protein stability index is on record?
**A.** The protein stability index was 3.16.

**Q.** Which protein stability index does the source give for EPAGSLREQGVWRSLLRLRATRAG here?
**A.** The protein stability index was 2.77.

**Q.** For EPAGSLREPGVWRSLLRLRATRAG, which protein stability index is on record?
**A.** Its protein stability index is 3.7.

**Q.** For EPAGSLREFGVWRSLLRLRATRAG, which protein stability index is on record?
**A.** The protein stability index was 3.97.

**Q.** With EPAGSLREWGVWRSLLRLRATRAG as the variant, how does the protein stability index read?
**A.** The protein stability index was 2.37.

**Q.** Which protein stability index does the source give for EPAGSLREGGVWRSLLRLRATRAG here?
**A.** The protein stability index was 3.69.

**Q.** For EPAGSLFELGVWRSLLRLRATRAG, which protein stability index is on record?
**A.** The protein stability index was 1.14.

**Q.** With EPAGSLAELGVWRSLLRLRATRAG as the variant, how does the protein stability index read?
**A.** Its protein stability index is 3.16.

**Q.** Which protein stability index does the source give for EPAGSLPELGVWRSLLRLRATRAG here?
**A.** Its protein stability index is 3.35.

**Q.** With EPAGSLLELGVWRSLLRLRATRAG as the variant, how does the protein stability index read?
**A.** The protein stability index was 2.44.

**Q.** For EPAGSLKELGVWRSLLRLRATRAG, which protein stability index is on record?
**A.** Its protein stability index is 2.07.

**Q.** For EPAGSLIELGVWRSLLRLRATRAG, which protein stability index is on record?
**A.** The protein stability index was 1.64.

**Q.** For EPAGSLEELGVWRSLLRLRATRAG, which protein stability index is on record?
**A.** Its protein stability index is 2.29.

**Q.** Which protein stability index does the source give for EPAGSLHELGVWRSLLRLRATRAG here?
**A.** Its protein stability index is 2.67.

**Q.** With EPAGSLWELGVWRSLLRLRATRAG as the variant, how does the protein stability index read?
**A.** Its protein stability index is 1.75.

**Q.** For EPAGSLGELGVWRSLLRLRATRAG, which protein stability index is on record?
**A.** The protein stability index was 3.07.

**Q.** For EPAGSLCELGVWRSLLRLRATRAG, which protein stability index is on record?
**A.** Its protein stability index is 1.74.

**Q.** With EPAGSLMELGVWRSLLRLRATRAG as the variant, how does the protein stability index read?
**A.** Its protein stability index is 2.92.

**Q.** Which protein stability index does the source give for EPAGSLRELGVTRSLLRLRATRAG here?
**A.** Its protein stability index is 4.02.

**Q.** For EPAGSLRELGVMRSLLRLRATRAG, which protein stability index is on record?
**A.** The protein stability index was 2.42.

**Q.** Which protein stability index does the source give for EPAGSLRELGVERSLLRLRATRAG here?
**A.** The protein stability index was 3.84.

**Q.** Which protein stability index does the source give for EPAGSLRELGVARSLLRLRATRAG here?
**A.** The protein stability index was 3.02.

**Q.** Which protein stability index does the source give for EPAGSLRELGVDRSLLRLRATRAG here?
**A.** The protein stability index was 1.9.

**Q.** With EPAGSLRELGVQRSLLRLRATRAG as the variant, how does the protein stability index read?
**A.** The protein stability index was 3.87.

**Q.** With EPAGSLRELGVSRSLLRLRATRAG as the variant, how does the protein stability index read?
**A.** Its protein stability index is 4.37.

**Q.** Which protein stability index does the source give for EPAGSLRELGVCRSLLRLRATRAG here?
**A.** Its protein stability index is 3.48.

**Q.** With EPAGSLRELGVPRSLLRLRATRAG as the variant, how does the protein stability index read?
**A.** Its protein stability index is 3.7.

**Q.** With EPAGSLRMLGVWRSLLRLRATRAG as the variant, how does the protein stability index read?
**A.** Its protein stability index is 1.73.

**Q.** Which protein stability index does the source give for EPAGSLRNLGVWRSLLRLRATRAG here?
**A.** Its protein stability index is 3.

**Q.** With EPAGSLRFLGVWRSLLRLRATRAG as the variant, how does the protein stability index read?
**A.** The protein stability index was 2.9.

**Q.** For EPAGSLRRLGVWRSLLRLRATRAG, which protein stability index is on record?
**A.** The protein stability index was 2.06.

**Q.** For EPAGSLRSLGVWRSLLRLRATRAG, which protein stability index is on record?
**A.** The protein stability index was 2.49.

**Q.** For EPAGSLRTLGVWRSLLRLRATRAG, which protein stability index is on record?
**A.** The protein stability index was 2.1.

**Q.** For EPAGSLRILGVWRSLLRLRATRAG, which protein stability index is on record?
**A.** The protein stability index was 1.57.

**Q.** Which protein stability index does the source give for EPAGSLRDLGVWRSLLRLRATRAG here?
**A.** Its protein stability index is 3.43.

From the supplement of paper PMC10567573
